Assay results published in patent publication US7067619 (LA JOLLA CANCER RESEARCH FOUNDATION, dated 2006).
Where two headings read alike, the source gives them in different places. Bridge positions count the residues as written; N and C are the ends. Ends that are not written are not given here.

Key:
Test in all cases: phage panning on coated integrin
[1] = biological target: αvβ5 integrin isolated from human placental extract (human, UniProt P06756 31-1048; P18084 24-799)
Method: (§1) In the first panning, the integrins were coated at 5 µg per well, and the library pool was incubated for 4 hours at 25° C. in TBS buffer containing 1% bovine serum albumin and 1 mM MnCl_2 (α_5β_1, α_vβ_3) 1 mM MgCl_2 ($\alphaIIb\beta_3$) or 1 mM CaCl_2 (α_vβ_5).

[2] = biological target: T1, α5β1 integrin isolated from human placental extract (human, UniProt P08648 42-1049; P05556 21-798)
T1 construct: coated on plastic wells or captured by anti-α5 antibody; also called fibronectin receptor
Method: as §1

[3] = biological target: T1, α5β1 integrin isolated from human …; remark: listed apart in the source

T1 sequence (P08648 42-1049, chain 1 of 2): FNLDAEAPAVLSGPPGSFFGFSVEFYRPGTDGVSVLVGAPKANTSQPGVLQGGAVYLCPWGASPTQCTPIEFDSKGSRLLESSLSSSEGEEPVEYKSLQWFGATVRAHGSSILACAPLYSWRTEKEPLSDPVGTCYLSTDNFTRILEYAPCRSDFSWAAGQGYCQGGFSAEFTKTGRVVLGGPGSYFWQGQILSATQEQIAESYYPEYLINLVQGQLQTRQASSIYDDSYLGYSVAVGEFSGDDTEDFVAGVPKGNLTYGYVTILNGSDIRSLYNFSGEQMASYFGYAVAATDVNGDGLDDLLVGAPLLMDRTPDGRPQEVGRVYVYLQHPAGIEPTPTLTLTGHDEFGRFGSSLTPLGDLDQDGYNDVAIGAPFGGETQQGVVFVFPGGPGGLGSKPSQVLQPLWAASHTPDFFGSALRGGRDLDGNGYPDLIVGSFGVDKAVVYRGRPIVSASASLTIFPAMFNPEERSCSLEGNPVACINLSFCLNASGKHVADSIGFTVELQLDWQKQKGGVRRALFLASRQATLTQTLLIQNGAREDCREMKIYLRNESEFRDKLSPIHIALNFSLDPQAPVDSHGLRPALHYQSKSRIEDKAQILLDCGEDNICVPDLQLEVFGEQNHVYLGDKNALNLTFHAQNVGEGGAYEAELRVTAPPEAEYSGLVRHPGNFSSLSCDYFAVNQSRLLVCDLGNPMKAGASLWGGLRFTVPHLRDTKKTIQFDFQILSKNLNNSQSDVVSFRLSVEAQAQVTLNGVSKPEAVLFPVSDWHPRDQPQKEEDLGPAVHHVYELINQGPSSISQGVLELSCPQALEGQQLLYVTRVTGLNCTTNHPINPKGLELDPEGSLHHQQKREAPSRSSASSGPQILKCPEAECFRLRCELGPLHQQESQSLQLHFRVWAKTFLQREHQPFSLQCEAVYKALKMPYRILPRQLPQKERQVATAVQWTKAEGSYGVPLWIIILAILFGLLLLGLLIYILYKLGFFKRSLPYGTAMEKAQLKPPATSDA
T1 sequence (P05556 21-798, chain 2 of 2): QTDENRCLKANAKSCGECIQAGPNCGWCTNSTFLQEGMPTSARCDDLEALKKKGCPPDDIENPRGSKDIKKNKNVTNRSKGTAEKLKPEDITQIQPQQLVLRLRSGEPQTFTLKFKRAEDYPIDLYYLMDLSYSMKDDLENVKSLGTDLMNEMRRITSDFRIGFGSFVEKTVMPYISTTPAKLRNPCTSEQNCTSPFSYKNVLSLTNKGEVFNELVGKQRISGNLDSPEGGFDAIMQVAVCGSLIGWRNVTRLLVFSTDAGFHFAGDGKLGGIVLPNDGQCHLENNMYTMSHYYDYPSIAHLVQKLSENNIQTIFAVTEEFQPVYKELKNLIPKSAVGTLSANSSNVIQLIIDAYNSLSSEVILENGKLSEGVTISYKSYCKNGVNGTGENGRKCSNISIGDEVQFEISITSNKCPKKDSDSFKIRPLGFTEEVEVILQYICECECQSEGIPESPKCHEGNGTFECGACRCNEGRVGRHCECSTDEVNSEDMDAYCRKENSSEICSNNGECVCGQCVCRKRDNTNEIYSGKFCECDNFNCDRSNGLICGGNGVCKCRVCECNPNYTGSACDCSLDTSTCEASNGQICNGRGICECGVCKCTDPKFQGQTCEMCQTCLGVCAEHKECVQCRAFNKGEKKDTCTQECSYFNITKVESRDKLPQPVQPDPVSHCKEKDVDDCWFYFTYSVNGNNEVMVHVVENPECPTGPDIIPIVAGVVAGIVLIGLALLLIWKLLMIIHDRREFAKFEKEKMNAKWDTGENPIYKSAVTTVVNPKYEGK
Chain of αvβ5 integrin isolated from human placental extract (P06756 31-1048, chain 1 of 2): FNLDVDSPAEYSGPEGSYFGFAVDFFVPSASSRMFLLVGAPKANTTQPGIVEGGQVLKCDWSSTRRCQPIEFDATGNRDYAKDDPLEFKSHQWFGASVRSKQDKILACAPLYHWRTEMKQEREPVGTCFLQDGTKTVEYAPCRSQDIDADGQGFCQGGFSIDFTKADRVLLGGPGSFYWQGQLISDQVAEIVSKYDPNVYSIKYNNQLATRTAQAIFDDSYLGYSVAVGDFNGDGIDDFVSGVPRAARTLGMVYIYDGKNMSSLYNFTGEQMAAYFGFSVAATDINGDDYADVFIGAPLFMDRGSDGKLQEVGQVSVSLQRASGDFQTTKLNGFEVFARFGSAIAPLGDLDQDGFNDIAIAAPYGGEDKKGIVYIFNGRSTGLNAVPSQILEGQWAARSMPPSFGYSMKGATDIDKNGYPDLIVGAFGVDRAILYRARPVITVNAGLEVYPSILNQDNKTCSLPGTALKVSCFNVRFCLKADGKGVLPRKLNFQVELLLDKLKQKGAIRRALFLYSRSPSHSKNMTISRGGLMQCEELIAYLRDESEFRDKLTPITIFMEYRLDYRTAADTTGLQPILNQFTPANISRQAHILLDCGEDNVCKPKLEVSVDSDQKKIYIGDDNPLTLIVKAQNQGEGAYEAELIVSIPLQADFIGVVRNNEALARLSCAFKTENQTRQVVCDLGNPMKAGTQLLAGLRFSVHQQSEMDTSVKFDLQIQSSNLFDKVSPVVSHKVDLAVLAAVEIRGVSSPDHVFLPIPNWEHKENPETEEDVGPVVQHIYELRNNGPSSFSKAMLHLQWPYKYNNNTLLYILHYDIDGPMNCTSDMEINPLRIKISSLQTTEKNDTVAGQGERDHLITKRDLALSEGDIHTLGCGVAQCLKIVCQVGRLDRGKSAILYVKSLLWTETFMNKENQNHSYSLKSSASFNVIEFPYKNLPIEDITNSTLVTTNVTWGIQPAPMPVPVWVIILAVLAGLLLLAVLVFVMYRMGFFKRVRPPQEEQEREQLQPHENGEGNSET
Chain of αvβ5 integrin isolated from human placental extract (P18084 24-799, chain 2 of 2): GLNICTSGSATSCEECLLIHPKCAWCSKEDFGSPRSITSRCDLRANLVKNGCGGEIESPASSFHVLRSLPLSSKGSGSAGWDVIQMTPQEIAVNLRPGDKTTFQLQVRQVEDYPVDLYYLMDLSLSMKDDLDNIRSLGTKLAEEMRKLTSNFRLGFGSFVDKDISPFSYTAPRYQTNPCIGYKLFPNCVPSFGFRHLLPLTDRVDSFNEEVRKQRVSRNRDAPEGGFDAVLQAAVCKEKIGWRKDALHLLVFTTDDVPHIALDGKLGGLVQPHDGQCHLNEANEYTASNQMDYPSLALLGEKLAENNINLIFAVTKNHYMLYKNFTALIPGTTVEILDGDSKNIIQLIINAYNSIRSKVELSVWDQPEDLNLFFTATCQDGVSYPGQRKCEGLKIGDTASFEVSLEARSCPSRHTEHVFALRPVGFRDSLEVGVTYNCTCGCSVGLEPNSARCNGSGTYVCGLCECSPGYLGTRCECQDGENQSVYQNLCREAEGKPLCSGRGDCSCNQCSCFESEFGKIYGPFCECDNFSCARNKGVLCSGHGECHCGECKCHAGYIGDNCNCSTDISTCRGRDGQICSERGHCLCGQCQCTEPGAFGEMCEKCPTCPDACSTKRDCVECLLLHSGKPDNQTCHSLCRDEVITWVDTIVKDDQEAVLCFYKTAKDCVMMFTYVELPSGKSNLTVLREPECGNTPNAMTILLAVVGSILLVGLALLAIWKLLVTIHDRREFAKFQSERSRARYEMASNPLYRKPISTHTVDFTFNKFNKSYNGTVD

B1: CRGDVPAVGC phage (peptide)
peptide: CRGDVPAVGC
notes: on fuse 5 phage, fused to pIII
Does B1 bind [1]?
Result: binds

B2: CPRRGDTFSC phage (peptide)
peptide: CPRRGDTFSC
notes: as for B1
Does B2 bind [1]?
Result: binds

B3: CRGDGYCVFF phage (peptide)
peptide: CRGDGYCVFF
notes: as for B1
Does B3 bind [2]?
Result: binds

B4: CGQGMHRLAC phage (peptide)
peptide: CGQGMHRLAC
notes: as for B1
Does B4 bind [2]?
Result: binds

B5: CTRKRAVGAA phage (peptide)
peptide: CTRKRAVGAA
notes: as for B1
Does B5 bind [1]?
Result: binds

B6: CRGDGLMCGL phage (peptide)
peptide: CRGDGLMCGL
notes: as for B1
Does B6 bind [2]?
Result: binds

B7: CRKQVMACTA phage (peptide)
peptide: CRKQVMACTA
notes: as for B1
Does B7 bind [1]?
Result: binds

B8: CAHRGDTPQC phage (peptide)
peptide: CAHRGDTPQC
notes: as for B1
Does B8 bind [1]?
Result: binds

B9: CPDKRGDTYC phage (peptide)
peptide: CPDKRGDTYC
notes: as for B1
Does B9 bind [1]?
Result: binds

B10: ECRRETAWAC phage (peptide)
peptide: ECRRETAWAC
notes: as for B1
Does B10 bind [3]?
Result: binds

B11: CKWRSARDLC phage (peptide)
peptide: CKWRSARDLC
notes: as for B1
Does B11 bind [2]?
Result: binds

B12: CTQRGDNFFC phage (peptide)
peptide: CTQRGDNFFC
notes: as for B1
Does B12 bind [1]?
Result: binds

B13: CRGDGWC phage (peptide)
peptide: CRGDGWC
modifications: disulfide 1-7 (inferred)
notes: on fuse 5 phage, fused to pIII; also called phage expressing the peptide A*CRGDGWC*G; not shown: The pIII coat protein of the fuse 5 phage vector and its junction residues
Does B13 bind [2]?
Result: binds

B14: CRGDGFC phage (peptide)
peptide: CRGDGFC
modifications: disulfide 1-7 (inferred)
notes: on fuse 5 phage, fused to pIII; not shown: The pIII coat protein of the fuse 5 phage vector and its junction residues
Does B14 bind [2]?
Result: binds

B15: CGQRSSARAS phage (peptide)
peptide: CGQRSSARAS
notes: as for B1
Does B15 bind [1]?
Result: binds

B16: CTNVNGRSAC phage (peptide)
peptide: CTNVNGRSAC
notes: as for B1
Does B16 bind [2]?
Result: binds

B17: CQGRGDTFYC phage (peptide)
peptide: CQGRGDTFYC
notes: as for B1
Does B17 bind [1]?
Result: binds

B18: CPVRRGDGWC phage (peptide)
peptide: CPVRRGDGWC
notes: as for B1
Does B18 bind [2]?
Result: binds

B19: CRGDCLPTPR phage (peptide)
peptide: CRGDCLPTPR
notes: as for B1
Does B19 bind [2]?
Result: binds

B20: CQVRGDQFAC phage (peptide)
peptide: CQVRGDQFAC
notes: as for B1
Does B20 bind [1]?
Result: binds

B21: CRSETYWKC phage (peptide)
peptide: CRSETYWKC
notes: as for B1
Does B21 bind [3]?
Result: binds

B22: CGQRGDGFCL phage (peptide)
peptide: CGQRGDGFCL
notes: as for B1
Does B22 bind [2]?
Result: binds

B23: CGRRGDVPRC phage (peptide)
peptide: CGRRGDVPRC
notes: as for B1
Does B23 bind [1]?
Result: binds

B24: CMWLSVNYSC phage (peptide)
peptide: CMWLSVNYSC
notes: as for B1
Does B24 bind [2]?
Result: binds

B25: CRGDGAWC phage (peptide)
peptide: CRGDGAWC
notes: as for B1
Does B25 bind [2]?
Result: binds

B26: CRGDRAWC phage (peptide)
peptide: CRGDRAWC
notes: as for B1
Does B26 bind [2]?
Result: binds

B27: CRGDGLLC phage (peptide)
peptide: CRGDGLLC
notes: as for B1
Does B27 bind [2]?
Result: binds

B28: CRGDGLIC phage (peptide)
peptide: CRGDGLIC
notes: as for B1
Does B28 bind [2]?
Result: binds

B29: CRGDGWMC phage (peptide)
peptide: CRGDGWMC
notes: as for B1
Does B29 bind [2]?
Result: binds

B30: CRGDGLMC phage (peptide)
peptide: CRGDGLMC
notes: as for B1
Does B30 bind [2]?
Result: binds

B31: CRGDNAWC phage (peptide)
peptide: CRGDNAWC
notes: as for B1
Does B31 bind [2]?
Result: binds

B32: CRGDAAWC phage (peptide)
peptide: CRGDAAWC
notes: as for B1
Does B32 bind [2]?
Result: binds

B33: CRGDNVWC phage (peptide)
peptide: CRGDNVWC
notes: as for B1
Does B33 bind [2]?
Result: binds

B34: CRGDGMLC phage (peptide)
peptide: CRGDGMLC
notes: as for B1
Does B34 bind [2]?
Result: binds

B35: CRGDGAFC phage (peptide)
peptide: CRGDGAFC
notes: as for B1
Does B35 bind [2]?
Result: binds

B36: CRGDGLDC phage (peptide)
peptide: CRGDGLDC
notes: as for B1
Does B36 bind [2]?
Result: binds

B37: CRGDGFLC phage (peptide)
peptide: CRGDGFLC
notes: as for B1
Does B37 bind [2]?
Result: binds

B38: CRGDGLWC phage (peptide)
peptide: CRGDGLWC
notes: as for B1
Does B38 bind [2]?
Result: binds

B39: CRGDGWIC phage (peptide)
peptide: CRGDGWIC
notes: as for B1
Does B39 bind [2]?
Result: binds

B40: CRGDGMWC phage (peptide)
peptide: CRGDGMWC
notes: as for B1
Does B40 bind [2]?
Result: binds

B41: CRGDGWLC phage (peptide)
peptide: CRGDGWLC
notes: as for B1
Does B41 bind [2]?
Result: binds

B42: CRGDAAHC phage (peptide)
peptide: CRGDAAHC
notes: as for B1
Does B42 bind [2]?
Result: binds

B43: CRGDGWWC phage (peptide)
peptide: CRGDGWWC
notes: as for B1
Does B43 bind [2]?
Result: binds

B44: CGADSEEGPC phage (peptide)
peptide: CGADSEEGPC
notes: as for B1
Does B44 bind [2]?
Result: binds

B45: CWRGDHVMPC phage (peptide)
peptide: CWRGDHVMPC
notes: as for B1
Does B45 bind [2]?
Result: binds

B46: CLRGDGLALC phage (peptide)
peptide: CLRGDGLALC
notes: as for B1
Does B46 bind [2]?
Result: binds

B47: CQGMHGTPAC phage (peptide)
peptide: CQGMHGTPAC
notes: as for B1
Does B47 bind [2]?
Result: binds

B48: CGSPLKSIKC phage (peptide)
peptide: CGSPLKSIKC
notes: as for B1
Does B48 bind [1]?
Result: binds

B49: CREQPASRSC phage (peptide)
peptide: CREQPASRSC
notes: as for B1
Does B49 bind [2]?
Result: binds

B50: CVDCILRYLC phage (peptide)
peptide: CVDCILRYLC
notes: as for B1
Does B50 bind [2]?
Result: binds

B51: CYVNGRAWAC phage (peptide)
peptide: CYVNGRAWAC
notes: as for B1
Does B51 bind [2]?
Result: binds

B52: CRGDTPGFLC phage (peptide)
peptide: CRGDTPGFLC
notes: as for B1
Does B52 bind [1]?
Result: binds

B53: CRGDLPRAWC phage (peptide)
peptide: CRGDLPRAWC
notes: as for B1
Does B53 bind [1]?
Result: binds

B54: CEAKFQLHWV phage (peptide)
peptide: CEAKFQLHWV
notes: as for B1
Does B54 bind [1]?
Result: binds

B55: CQGIDGTPAC phage (peptide)
peptide: CQGIDGTPAC
notes: as for B1
Does B55 bind [2]?
Result: binds

B56: CSQKRGDTWC phage (peptide)
peptide: CSQKRGDTWC
notes: as for B1
Does B56 bind [1]?
Result: binds

B57: CDSVLRVFC phage (peptide)
peptide: CDSVLRVFC
notes: as for B1
Does B57 bind [1]?
Result: binds

B58: CGPRERFLSC phage (peptide)
peptide: CGPRERFLSC
notes: as for B1
Does B58 bind [1]?
Result: binds

B59: CIRQRIYPWC phage (peptide)
peptide: CIRQRIYPWC
notes: as for B1
Does B59 bind [1]?
Result: binds

B60: CRRETAWAC phage (peptide)
peptide: CRRETAWAC
notes: as for B1
Does B60 bind [3]?
Result: binds

B61: CDWRGDNQFC phage (peptide)
peptide: CDWRGDNQFC
notes: as for B1
Does B61 bind [2]?
Result: binds

B62: CVGKELHKRV phage (peptide)
peptide: CVGKELHKRV
notes: as for B1
Does B62 bind [1]?
Result: binds

B63: CIEIQHGKAC phage (peptide)
peptide: CIEIQHGKAC
notes: as for B1
Does B63 bind [1]?
Result: binds

B64: CYRGDADFWC phage (peptide)
peptide: CYRGDADFWC
notes: as for B1
Does B64 bind [1]?
Result: binds

B65: CVTRGDSFSC phage (peptide)
peptide: CVTRGDSFSC
notes: as for B1
Does B65 bind [1]?
Result: binds

B66: CVSRGDTPKC phage (peptide)
peptide: CVSRGDTPKC
notes: as for B1
Does B66 bind [1]?
Result: binds

B67: CRGDGQHC phage (peptide)
peptide: CRGDGQHC
notes: as for B1
Does B67 bind [2]?
Result: binds

B68: CIRRGDTFGC phage (peptide)
peptide: CIRRGDTFGC
notes: as for B1
Does B68 bind [1]?
Result: binds

B69: CAPRGDHFAC phage (peptide)
peptide: CAPRGDHFAC
notes: as for B1
Does B69 bind [1]?
Result: binds

B70: CQSRGDDFSC phage (peptide)
peptide: CQSRGDDFSC
notes: as for B1
Does B70 bind [1]?
Result: binds
